# Measurements as given in patent US20210246166A1 (Bayer, published 2021).
# Bridge positions count the residues as written; N and C are the ends. Square brackets hold non-standard residues; d marks the D form. Primed or numbered codes have the meaning given here. Ends that are not written are not given here. PEG9(31 atoms) = 1-amino-3,6,9,12,15,18,21,24,27-nonaoxatriacontan-30-oic acid; TTDS(3) = 1,13-Diamino-4,7,10-trioxatridecan-succinamic acid; Pro(3S,4R-methano) = O=C(O)[C@H]1NC[C@@H]2C[C@@H]21; Oic = O=C(O)[C@@H]1C[C@@H]2CCCC[C@@H]2N1; PEG8 = NCCOCCOCCOCCOCCOCCOCCOCCOCCC(=O)O; Pro‑D2 = L-proline (3,4-2H), deuterated; PEG7 = NCCOCCOCCOCCOCCOCCOCCOCCC(=O)O; PEG6 = NCCOCCOCCOCCOCCOCCOCCC(=O)O; tBuAla = CC(C)(C)C[C@H](N)C(=O)O; PEG5 = NCCOCCOCCOCCOCCOCCC(=O)O; Pen = CC(C)(S)[C@H](N)C(=O)O; PEG3 = NCCOCCOCCOCCC(=O)O; NMeA = CN[C@@H](C)C(=O)O; Sar = CNCC(=O)O
# T1: recombinant rat MASP1 active protease (amino acids 302-704, C-terminal His Tag) (rat, UniProt Q8CHN8 302-704)
# T1 sequence: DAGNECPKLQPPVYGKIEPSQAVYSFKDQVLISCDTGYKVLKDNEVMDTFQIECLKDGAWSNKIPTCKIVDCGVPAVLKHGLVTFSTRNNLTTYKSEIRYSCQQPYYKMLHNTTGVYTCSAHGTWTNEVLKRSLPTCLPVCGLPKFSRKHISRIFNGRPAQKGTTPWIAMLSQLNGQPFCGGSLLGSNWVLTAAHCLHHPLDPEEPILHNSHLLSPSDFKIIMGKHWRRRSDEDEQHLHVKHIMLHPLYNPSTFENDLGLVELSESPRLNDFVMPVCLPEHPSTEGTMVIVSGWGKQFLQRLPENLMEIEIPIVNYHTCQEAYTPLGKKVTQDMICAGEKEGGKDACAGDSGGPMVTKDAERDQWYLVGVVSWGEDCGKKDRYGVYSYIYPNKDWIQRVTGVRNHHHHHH
# How the values were obtained:
# [1] = target: T1, recombinant rat MASP1 active protease …; experiment: cell-based or functional assay
# [2] = target: recombinant rat MASP2 active protease (amino acids 296-685, C-terminal His Tag) (rat, UniProt Q9JJS8 296-685); experiment: cell-based or functional assay
# Sequence of recombinant rat MASP2 active protease (amino acids 296-685, C-terminal His Tag) (Q9JJS8 other isoform, or with tags, fused parts or gaps limits assumed): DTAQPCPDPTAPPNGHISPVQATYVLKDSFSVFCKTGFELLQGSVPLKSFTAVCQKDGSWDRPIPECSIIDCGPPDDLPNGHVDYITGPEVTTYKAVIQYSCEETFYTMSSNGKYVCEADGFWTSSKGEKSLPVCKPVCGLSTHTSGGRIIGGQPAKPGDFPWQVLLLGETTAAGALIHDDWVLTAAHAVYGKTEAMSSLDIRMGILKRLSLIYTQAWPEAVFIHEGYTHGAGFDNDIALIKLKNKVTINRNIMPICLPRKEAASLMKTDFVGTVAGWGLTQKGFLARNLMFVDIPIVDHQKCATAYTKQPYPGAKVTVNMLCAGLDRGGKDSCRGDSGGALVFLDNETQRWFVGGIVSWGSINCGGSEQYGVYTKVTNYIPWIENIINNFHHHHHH
rat MASP1 IC50 [1] [nM],rat MASP2 IC50 [2] [nM],Binder
87,35,[Sar]ICSRS[tBuAla]PPI[Pen]IP[PEG9(31 atoms)]-NH2 (disulfide 3-11) [Example 44: ((N-Me)G)-IC+SRS-((tBu)A)-PPI-(Pen)+IP-(PEG9(31 atoms))-NH2]
160,48,VICSRS[tBuAla]PPI[Pen]IPD-NH2 (disulfide 3-11; N-terminus assumed; SMILES CC[C@H](C)[C@H](NC(=O)[C@@H](N)C(C)C)C(=O)N[C@H]1CSSC(C)(C)[C@@H](C(=O)N[C@H](C(=O)N2CCC[C@H]2C(=O)N[C@@H](CC(=O)O)C(N)=O)[C@@H](C)CC)NC(=O)[C@H]([C@@H](C)CC)NC(=O)[C@@H]2CCCN2C(=O)[C@@H]2CCCN2C(=O)[C@H](CC(C)(C)C)NC(=O)[C@H](CO)NC(=O)[C@H](CCCNC(=N)N)NC(=O)[C@H](CO)NC1=O) [Example 54: VIC+SRS-((tBu)A)-PPI-(Pen)+IPD-NH2]
65,27,[Sar]ICSRS[tBuAla]PPI[Pen]IP-{PEG5‑CH2CO2H (18 atoms)-NH2} (disulfide 3-11) [Example 55: ((N-Me)G)-IC+SRS-((tBu)A)-PPI-(Pen)+IP-(PEG5-CH2CO2H (18 atoms))-NH2]
72,36,[Sar]ICSRSLP[Oic]I[Pen]IP-NH2 (disulfide 3-11; also: HCl salt) [Example 67: ((N-Me)G)-IC+SRSLP-(Oic)-I-(Pen)+IP-NH2 (HCl salt)]
43,27,[Sar]ICSRS[tBuAla]PPI[Pen]IP-{PEG3-NH2} (disulfide 3-11) [Example 72: ((N-Me)G)-IC+SRS-((tBu)A)-PPI-(Pen)+IP-(PEG2(13 atoms))-NH2]
120,48,[Sar]ICSRSLP[Oic]I[Pen]IP-{PEG5‑CH2CO2H (18 atoms)-NH2} (disulfide 3-11) [Example 83: ((N-Me)G)-IC+SRSLP-(Oic)-I-(Pen)+IP-(PEG5-CH2CO2H (18 atoms))-NH2]
75,37,[Sar]ICSRS[tBuAla]PPI[Pen]IP-{TTDS(3)-NH2} (disulfide 3-11) [Example 85: ((N-Me)G)-IC+SRS-((tBu)A)-PPI-(Pen)+IP-(TTDS)-NH2]
36,68,[Sar]ICSRSLP[Oic]I[Pen]IPD-OH (disulfide 3-11; N-terminus assumed; SMILES CC[C@H](C)[C@H](NC(=O)CNC)C(=O)N[C@H]1CSSC(C)(C)[C@@H](C(=O)N[C@H](C(=O)N2CCC[C@H]2C(=O)N[C@@H](CC(=O)O)C(=O)O)[C@@H](C)CC)NC(=O)[C@H]([C@@H](C)CC)NC(=O)[C@@H]2C[C@@H]3CCCC[C@@H]3N2C(=O)[C@@H]2CCCN2C(=O)[C@H](CC(C)C)NC(=O)[C@H](CO)NC(=O)[C@H](CCCNC(=N)N)NC(=O)[C@H](CO)NC1=O) [Example 88: ((N-Me)G)-IC+SRSLP-(Oic)-I-(Pen)+IPD-OH]
67,55,"[Sar]ICSRSL[Pro(3S,4R-methano)]PI[Pen]IPE-NH2 (disulfide 3-11; N-terminus assumed; SMILES CC[C@H](C)[C@H](NC(=O)CNC)C(=O)N[C@H]1CSSC(C)(C)[C@@H](C(=O)N[C@H](C(=O)N2CCC[C@H]2C(=O)N[C@@H](CCC(=O)O)C(N)=O)[C@@H](C)CC)NC(=O)[C@H]([C@@H](C)CC)NC(=O)[C@@H]2CCCN2C(=O)[C@@H]2[C@H]3C[C@H]3CN2C(=O)[C@H](CC(C)C)NC(=O)[C@H](CO)NC(=O)[C@H](CCCNC(=N)N)NC(=O)[C@H](CO)NC1=O)"
120,51,[Sar]ICSRSLP[Oic]I[Pen]IP-{PEG5-NH2} (disulfide 3-11) [Example 97: ((N-Me)G)-IC+SRSLP-(Oic)-I-(Pen)+IP-(PEG4(19 atoms))-NH2]
76,42,[Sar]ICSRSLP[Oic]I[Pen]IP-NH2 (disulfide 3-11; N-terminus assumed; SMILES CC[C@H](C)[C@H](NC(=O)CNC)C(=O)N[C@H]1CSSC(C)(C)[C@@H](C(=O)N[C@H](C(=O)N2CCC[C@H]2C(N)=O)[C@@H](C)CC)NC(=O)[C@H]([C@@H](C)CC)NC(=O)[C@@H]2C[C@@H]3CCCC[C@@H]3N2C(=O)[C@@H]2CCCN2C(=O)[C@H](CC(C)C)NC(=O)[C@H](CO)NC(=O)[C@H](CCCNC(=N)N)NC(=O)[C@H](CO)NC1=O) [Example 109: ((N-Me)G)-IC+SRSLP-(Oic)-I-(Pen)+IP-NH2]
11,10,[NMeA]ICSRS[tBuAla]PPI[Pen]IP-NH2 (disulfide 3-11; N-terminus assumed; SMILES CC[C@H](C)[C@H](NC(=O)[C@H](C)NC)C(=O)N[C@H]1CSSC(C)(C)[C@@H](C(=O)N[C@H](C(=O)N2CCC[C@H]2C(N)=O)[C@@H](C)CC)NC(=O)[C@H]([C@@H](C)CC)NC(=O)[C@@H]2CCCN2C(=O)[C@@H]2CCCN2C(=O)[C@H](CC(C)(C)C)NC(=O)[C@H](CO)NC(=O)[C@H](CCCNC(=N)N)NC(=O)[C@H](CO)NC1=O) [Example 126: ((N-Me)A)-IC+SRS-((tBu)A)-PPI-(Pen)+IP-NH2]
100,50,[Sar]ICSRSLP[Oic]I[Pen]IP[PEG6]-NH2 (disulfide 3-11; N-terminus assumed; SMILES CC[C@H](C)[C@H](NC(=O)CNC)C(=O)N[C@H]1CSSC(C)(C)[C@@H](C(=O)N[C@H](C(=O)N2CCC[C@H]2C(=O)NCCOCCOCCOCCOCCOCCOCCC(N)=O)[C@@H](C)CC)NC(=O)[C@H]([C@@H](C)CC)NC(=O)[C@@H]2C[C@@H]3CCCC[C@@H]3N2C(=O)[C@@H]2CCCN2C(=O)[C@H](CC(C)C)NC(=O)[C@H](CO)NC(=O)[C@H](CCCNC(=N)N)NC(=O)[C@H](CO)NC1=O) [Example 140: ((N-Me)G)-IC+SRSLP-(Oic)-I-(Pen)+IP-(PEG5(22 atoms))-NH2]
140,95,[Sar]ICSRSLP[Oic]I[Pen]IPD[PEG8]-NH2 (disulfide 3-11; N-terminus assumed; SMILES CC[C@H](C)[C@H](NC(=O)CNC)C(=O)N[C@H]1CSSC(C)(C)[C@@H](C(=O)N[C@H](C(=O)N2CCC[C@H]2C(=O)N[C@@H](CC(=O)O)C(=O)NCCOCCOCCOCCOCCOCCOCCOCCOCCC(N)=O)[C@@H](C)CC)NC(=O)[C@H]([C@@H](C)CC)NC(=O)[C@@H]2C[C@@H]3CCCC[C@@H]3N2C(=O)[C@@H]2CCCN2C(=O)[C@H](CC(C)C)NC(=O)[C@H](CO)NC(=O)[C@H](CCCNC(=N)N)NC(=O)[C@H](CO)NC1=O) [Example 141: ((N-Me)G)-IC+SRSLP-(Oic)-I-(Pen)+IPD-(PEG8(28 atoms))-NH2]
10.9,17.1,AICSRSL[Pro‑D2][Oic]I[Pen]IPD-OH (disulfide 3-11) [Example 142: AIC+SRSL-(Pro-D2)-(Oic)-I-(Pen)+IPD-OH]
110,68,[Sar]ICSRSLP[Oic]I[Pen]IPD[PEG6]-NH2 (disulfide 3-11; N-terminus assumed; SMILES CC[C@H](C)[C@H](NC(=O)CNC)C(=O)N[C@H]1CSSC(C)(C)[C@@H](C(=O)N[C@H](C(=O)N2CCC[C@H]2C(=O)N[C@@H](CC(=O)O)C(=O)NCCOCCOCCOCCOCCOCCOCCC(N)=O)[C@@H](C)CC)NC(=O)[C@H]([C@@H](C)CC)NC(=O)[C@@H]2C[C@@H]3CCCC[C@@H]3N2C(=O)[C@@H]2CCCN2C(=O)[C@H](CC(C)C)NC(=O)[C@H](CO)NC(=O)[C@H](CCCNC(=N)N)NC(=O)[C@H](CO)NC1=O) [Example 146: ((N-Me)G)-IC+SRSLP-(Oic)-I-(Pen)+IPD-(PEG5(22 atoms))-NH2]
120,53,[Sar]ICSRSLP[Oic]I[Pen]IP[PEG7]-NH2 (disulfide 3-11; N-terminus assumed; SMILES CC[C@H](C)[C@H](NC(=O)CNC)C(=O)N[C@H]1CSSC(C)(C)[C@@H](C(=O)N[C@H](C(=O)N2CCC[C@H]2C(=O)NCCOCCOCCOCCOCCOCCOCCOCCC(N)=O)[C@@H](C)CC)NC(=O)[C@H]([C@@H](C)CC)NC(=O)[C@@H]2C[C@@H]3CCCC[C@@H]3N2C(=O)[C@@H]2CCCN2C(=O)[C@H](CC(C)C)NC(=O)[C@H](CO)NC(=O)[C@H](CCCNC(=N)N)NC(=O)[C@H](CO)NC1=O) [Example 150: ((N-Me)G)-IC+SRSLP-(Oic)-I-(Pen)+IP-(PEG7(25 atoms))-NH2]
40,50.3,AICSRSLP[Oic]ICIPD-OH (disulfide 3-11; N-terminus assumed; SMILES CC[C@H](C)[C@H](NC(=O)[C@H](C)N)C(=O)N[C@H]1CSSC[C@@H](C(=O)N[C@H](C(=O)N2CCC[C@H]2C(=O)N[C@@H](CC(=O)O)C(=O)O)[C@@H](C)CC)NC(=O)[C@H]([C@@H](C)CC)NC(=O)[C@@H]2C[C@@H]3CCCC[C@@H]3N2C(=O)[C@@H]2CCCN2C(=O)[C@H](CC(C)C)NC(=O)[C@H](CO)NC(=O)[C@H](CCCNC(=N)N)NC(=O)[C@H](CO)NC1=O) [Example 153: AIC+SRSLP-(Oic)-IC+IPD-OH]
21,16,[Sar]ICSRS[tBuAla]PPI[Pen]IP-NH2 (disulfide 3-11; N-terminus assumed; SMILES CC[C@H](C)[C@H](NC(=O)CNC)C(=O)N[C@H]1CSSC(C)(C)[C@@H](C(=O)N[C@H](C(=O)N2CCC[C@H]2C(N)=O)[C@@H](C)CC)NC(=O)[C@H]([C@@H](C)CC)NC(=O)[C@@H]2CCCN2C(=O)[C@@H]2CCCN2C(=O)[C@H](CC(C)(C)C)NC(=O)[C@H](CO)NC(=O)[C@H](CCCNC(=N)N)NC(=O)[C@H](CO)NC1=O) [Example 156: ((N-Me)G)-IC+SRS-((tBu)A)-PPI-(Pen)+IP-NH2]
